T1: RXFP1 receptor expressed by transient transfection in HEK293T cells (UniProt Q9HBX9 1-757, limits assumed)
T1 sequence (looked up): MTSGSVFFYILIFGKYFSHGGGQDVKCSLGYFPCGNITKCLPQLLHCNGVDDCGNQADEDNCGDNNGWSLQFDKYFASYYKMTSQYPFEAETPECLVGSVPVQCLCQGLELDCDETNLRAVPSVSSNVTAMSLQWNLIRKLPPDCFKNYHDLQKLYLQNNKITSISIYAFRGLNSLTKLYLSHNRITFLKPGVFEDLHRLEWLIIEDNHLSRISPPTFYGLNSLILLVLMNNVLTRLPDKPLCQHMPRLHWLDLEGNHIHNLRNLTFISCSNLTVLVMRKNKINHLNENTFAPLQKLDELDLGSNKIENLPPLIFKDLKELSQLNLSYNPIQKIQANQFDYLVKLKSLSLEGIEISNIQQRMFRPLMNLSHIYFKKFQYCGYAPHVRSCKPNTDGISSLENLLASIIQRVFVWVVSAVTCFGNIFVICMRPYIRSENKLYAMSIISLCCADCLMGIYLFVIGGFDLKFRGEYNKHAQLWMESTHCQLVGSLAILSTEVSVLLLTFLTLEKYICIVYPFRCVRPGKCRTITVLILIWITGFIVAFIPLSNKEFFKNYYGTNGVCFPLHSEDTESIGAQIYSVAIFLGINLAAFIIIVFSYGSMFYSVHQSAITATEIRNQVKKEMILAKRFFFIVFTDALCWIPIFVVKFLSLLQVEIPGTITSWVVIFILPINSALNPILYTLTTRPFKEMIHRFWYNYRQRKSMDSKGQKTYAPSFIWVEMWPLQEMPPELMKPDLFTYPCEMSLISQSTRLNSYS


Molecular target: T1, RXFP1 receptor expressed by transient …
Test: cell-based or functional assay

Row | Binder | EC50 | Emax (Native two-chain relaxin = 100% Emax)
1 | SE004, Protein C-tag and His-tag single-chain relaxin (ligand) EDQVDPRLIDGKGSHHHHHHDSWMEEVIKLCGRELVRAQIAICGMSTWSDAASSHSHSSARQLYSALANKCCHVGCTKRSLARFC | 1.5 nM | 117%
2 | SE401, Single-chain relaxin with the combined substitutions of SE201, 204-207, fused to the C-terminus of mouse serum albumin with an N-terminal 8X His-tag (other) HHHHHHHHRGVFRREAHKSEIAHRYNDLGEQHFKGLVLIAFSQYLQKCSYDEHAKLVQEVTDFAKTCVADESAANCDKSLHTLFGDKLCAIPNLRENYGELADCCTKQEPERNECFLQHKDDNPSLPPFERPEAEAMCTSFKENPTTFMGHYLHEVARRHPYFYAPELLYYAEQYNEILTQCCAEADKESCLTPKLDGVKEKALVSSVRQRMKCSSMQKFGERAFKAWAVARLSQTFPNADFAEITKLATDLTKVNKECCHGDLLECADDRAELAKYMCENQATISSKLQTCCDKPLLKKAHCLSEVEHDTMPADLPAIAADFVEDQEVCKNYAEAKDVFLGTFLYEYSRRHPDYSVSLLLRLAKKYEATLEKCCAEANPPACYGTVLAEFQPLVEEPKNLVKTNCDLYEKLGEYGFQNAILVRYTQKAPQVSTPTLVEAARNLGRVGTKCCTLPEDQRLPCVEDYLSAILNRVCLLHEKTPVSEHVTKCCSGSLVERRPCFSALTVDETYVPKEFKAETFTFHSDICTLPEKEKQIKKQTALAELVKHKPKATAEQLKTVMDDFAQFLDTCCKAADKDTCFSTEGPNLVTRCKDALAGGSDSWKEEVIKLCGRELVRAQIAICGKSTASDAAGANANAGARQLYSALANKCCHVGCTKRSLARFC | 52.6 nM | 121%
3 | SE001, His-tag single-chain relaxin (ligand) HHHHHHDSWMEEVIKLCGRELVRAQIAICGMSTWSDAASSHSHSSARQLYSALANKCCHVGCTKRSLARFC |  | 118%
4 | SE005, Truncated His-tag single-chain relaxin (ligand) HHHHHHEEVIKLCGRELVRAQIAICGMSTWSDAASSHSHSSARQLYSALANKCCHVGCTKRSLARFC | 0.485 nM | 112%
